One assay has as its target T1, 4H3592-bN.
T1 chain: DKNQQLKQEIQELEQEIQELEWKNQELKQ
Kind of assay: two-hybrid library CCNG1.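 Also: natural log of median RNA to DNA barcode read ratio; higher means stronger binding.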

For another assay, the target named is T2, 4H3907-bN.
T2 chain: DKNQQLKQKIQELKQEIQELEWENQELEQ
Kind of assay: two-hybrid library CCNG1.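 Also: natural log of median RNA to DNA barcode read ratio; higher means stronger binding.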

For another assay, the target named is T3, 4H932-bA.
T3 chain: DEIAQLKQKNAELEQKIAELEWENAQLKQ
Description: two-hybrid library CCNG1.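 Also: natural log of median RNA to DNA barcode read ratio; higher means stronger binding.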

A further assay concerns the target T4, 4H477-bN.
T4 chain: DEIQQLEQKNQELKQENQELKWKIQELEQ
Kind of assay: two-hybrid library CCNG1.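 Also: natural log of median RNA to DNA barcode read ratio; higher means stronger binding.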

The next assay has as its target T5, 4H1406-bN.
T5 chain: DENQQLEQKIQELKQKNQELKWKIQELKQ
Kind of assay: two-hybrid library CCNG1.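 Also: natural log of median RNA to DNA barcode read ratio; higher means stronger binding.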

A further assay has as its target T6, 4H2586-bA.
T6 chain: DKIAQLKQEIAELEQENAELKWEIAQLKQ
Description: two-hybrid library CCNG1.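 Also: natural log of median RNA to DNA barcode read ratio; higher means stronger binding.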

In a further assay the target is T7, 4H3601-bN.
T7 chain: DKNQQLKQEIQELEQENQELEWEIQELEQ
Description: two-hybrid library CCNG1.

The target in the next assay is T8, 4H4038-bN.
T8 chain: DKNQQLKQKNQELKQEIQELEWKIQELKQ
Description: two-hybrid library CCNG1.

The target in a further assay is T9, P3bH1.
T9 chain: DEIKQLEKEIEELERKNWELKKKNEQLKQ
Kind of assay: two-hybrid library CCNG1.

The target of another assay is T10, P7bH1.
T10 chain: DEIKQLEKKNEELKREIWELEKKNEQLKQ
Kind of assay: two-hybrid library CCNG1.

A further assay deals with T11, P9bH1.
T11 chain: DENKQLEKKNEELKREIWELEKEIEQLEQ
Kind of assay: two-hybrid library CCNG1.

A further assay addresses T12, P5bH1.
T12 chain: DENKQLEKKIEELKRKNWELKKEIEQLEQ
Description: two-hybrid library CCNG1.

Another assay concerns the target T13, P6bH1.
T13 chain: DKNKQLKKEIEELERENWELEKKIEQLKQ
Description: two-hybrid library CCNG1.

Another assay has as its target T14, P4bH1.
T14 chain: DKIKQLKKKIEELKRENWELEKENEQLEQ
Kind of assay: two-hybrid library CCNG1.

Another assay has as its target T15, P8bH1.
T15 chain: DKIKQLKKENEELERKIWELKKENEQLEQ
Description: two-hybrid library CCNG1.

Another assay concerns the target T16, P2bH1.
T16 chain: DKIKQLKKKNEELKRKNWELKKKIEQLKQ
Kind of assay: two-hybrid library CCNG1.

For the next assay, the target named is T17, P1bH1.
T17 chain: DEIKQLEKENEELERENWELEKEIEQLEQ
Description: two-hybrid library CCNG1.

The target of the next assay is T18, O6-bS.
T18 chain: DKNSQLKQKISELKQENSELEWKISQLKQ
Kind of assay: two-hybrid library CCNG1.

A further assay addresses T19, O2-bS.
T19 chain: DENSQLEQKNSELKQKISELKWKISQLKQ
Description: two-hybrid library CCNG1.

Another assay concerns the target T20, O4-bS.
T20 chain: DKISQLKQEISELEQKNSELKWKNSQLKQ
Description: two-hybrid library CCNG1.

The next assay has as its target T21, O7-bS.
T21 chain: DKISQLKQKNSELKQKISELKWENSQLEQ
Description: two-hybrid library CCNG1.

Another assay addresses T22, O8-bS.
T22 chain: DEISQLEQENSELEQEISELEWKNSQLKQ
Description: two-hybrid library CCNG1.

For another assay, the target named is T23, O3-bS.
T23 chain: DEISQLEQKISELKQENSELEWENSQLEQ
Description: two-hybrid library CCNG1.

In the next assay the target is T24, O5-bS.
T24 chain: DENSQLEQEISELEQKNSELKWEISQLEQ
Kind of assay: two-hybrid library CCNG1.

The next assay addresses T25, O16-bS.
T25 chain: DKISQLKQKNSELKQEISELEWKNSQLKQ
Description: two-hybrid library CCNG1.

For another assay, the target named is T26, O14-bS.
T26 chain: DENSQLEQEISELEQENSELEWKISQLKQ
Description: two-hybrid library CCNG1.

The target of a further assay is T27, P8A-bN.
T27 chain: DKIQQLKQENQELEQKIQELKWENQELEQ
Description: two-hybrid library CCNG1.

Another assay has as its target T28, APC4011-AA.
T28 chain: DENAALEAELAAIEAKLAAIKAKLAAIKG
Kind of assay: two-hybrid library CCmax. The settings on record: mean of both orientations.

Another assay deals with T29, APC1434-AA.
T29 chain: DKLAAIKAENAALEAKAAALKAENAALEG
Description: two-hybrid library CCmax. The settings on record: mean of both orientations.

For the next assay, the target named is T30, 4H733-AA.
T30 chain: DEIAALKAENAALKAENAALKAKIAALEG
Kind of assay: two-hybrid library CCmax. The following applies: mean of both orientations.

For another assay, the target named is T31, 4H716-AA.
T31 chain: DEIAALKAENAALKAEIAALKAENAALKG
Kind of assay: two-hybrid library CCmax. The settings on record: mean of both orientations.

In a further assay the target is T32, APC232-AA.
T32 chain: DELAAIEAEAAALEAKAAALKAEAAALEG
Kind of assay: two-hybrid library CCmax. The settings on record: mean of both orientations.

For another assay, the target named is T33, APC6108-AA.
T33 chain: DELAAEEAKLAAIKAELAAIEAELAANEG
Description: two-hybrid library CCmax. The following applies: mean of both orientations.

The target of a further assay is T34, APC2405-AA.
T34 chain: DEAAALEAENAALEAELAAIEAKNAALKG
Kind of assay: two-hybrid library CCmax. The following applies: mean of both orientations.

The target of another assay is T35, 4H807-AA.
T35 chain: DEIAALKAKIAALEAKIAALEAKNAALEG
Kind of assay: two-hybrid library CCmax. The following applies: mean of both orientations.

A further assay concerns the target T36, APC4264-AA.
T36 chain: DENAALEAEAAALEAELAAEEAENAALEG
Kind of assay: two-hybrid library CCmax. The settings on record: mean of both orientations.

The target of a further assay is T37, APC4436-AA.
T37 chain: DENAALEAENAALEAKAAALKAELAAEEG
Description: two-hybrid library CCmax. The following applies: mean of both orientations.

In the next assay the target is T38, 4H2458-AA.
T38 chain: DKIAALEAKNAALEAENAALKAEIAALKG
Kind of assay: two-hybrid library CCmax. The following applies: mean of both orientations.

A further assay addresses T39, APC8191-AA.
T39 chain: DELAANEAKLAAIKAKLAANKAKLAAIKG
Description: two-hybrid library CCmax. The settings on record: mean of both orientations.

A further assay concerns the target T40, APC9319-AA.
T40 chain: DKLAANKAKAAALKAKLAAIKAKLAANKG
Kind of assay: two-hybrid library CCmax. The settings on record: mean of both orientations.

The target of the next assay is T41, APC8910-AA.
T41 chain: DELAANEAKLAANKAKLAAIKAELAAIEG
Description: two-hybrid library CCmax. The settings on record: mean of both orientations.

Another assay addresses T42, APC5383-AA.
T42 chain: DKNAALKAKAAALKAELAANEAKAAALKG
Description: two-hybrid library CCmax. The settings on record: mean of both orientations.

The next assay concerns the target T43, APC1015-AA.
T43 chain: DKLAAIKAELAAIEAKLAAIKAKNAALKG
Description: two-hybrid library CCmax. The following applies: mean of both orientations.

A further assay addresses T44, 4H2290-AA.
T44 chain: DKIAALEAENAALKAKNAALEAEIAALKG
Description: two-hybrid library CCmax.

Another assay has as its target T45, APC2237-AA.
T45 chain: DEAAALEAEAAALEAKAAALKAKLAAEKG
Description: two-hybrid library CCmax. The settings on record: mean of both orientations.

In another assay the target is T46, APC9096-AA.
T46 chain: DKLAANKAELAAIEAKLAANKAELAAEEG
Description: two-hybrid library CCmax. The settings on record: mean of both orientations.

For the next assay, the target named is T47, APC3645-AA.
T47 chain: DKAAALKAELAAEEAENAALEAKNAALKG
Description: two-hybrid library CCmax. The following applies: mean of both orientations.

A further assay concerns the target T48, 4H3330-AA.
T48 chain: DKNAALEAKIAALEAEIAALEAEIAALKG
Kind of assay: two-hybrid library CCmax. The settings on record: mean of both orientations.

The target in the next assay is T49, 4H2447-AA.
T49 chain: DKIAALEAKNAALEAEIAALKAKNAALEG
Kind of assay: two-hybrid library CCmax. The following applies: mean of both orientations.

Another assay concerns the target T50, APC7099-AA.
T50 chain: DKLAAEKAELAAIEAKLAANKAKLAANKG
Kind of assay: two-hybrid library CCmax. The following applies: mean of both orientations.

Our source for the interaction score values is PMC10397247.

B1: 4H1406-bN (peptide)
chain: DENQQLEQKIQELKQKNQELKWKIQELKQ
As to B1, the interaction score in the assay with 4H3592-bN is 0.142; with 4H3907-bN it was 0.347; with 4H932-bA, -1.96; with 4H477-bN, -2.09; with 4H1406-bN, -0.553; with 4H2586-bA it was 0.875. Besides, the values for the interaction score with 4H3601-bN and with 4H4038-bN were 1.53 and -1.69, respectively.

B2: P1bH1 (peptide)
chain: DEIKQLEKENEELERENWELEKEIEQLEQ
In the case of B2, the interaction score with P3bH1 is -1.08; with P7bH1, -0.809; in the assay with P9bH1, -0.87; with P5bH1, -1.15; with P6bH1, -1.2; in the assay with P4bH1, -1.38. Besides, the interaction score is -0.757 with P8bH1, 1.17 with P2bH1 and -0.717 with P1bH1.

B3: O14-bS (peptide)
chain: DENSQLEQEISELEQENSELEWKISQLKQ
Regarding B3, the interaction score with O6-bS is 0.332; with O2-bS, -1.15; with O4-bS, 0.126; in the assay with O7-bS, -0.1; with O8-bS, -2.39; with O3-bS, -0.0513. Besides, the interaction score with O5-bS was -0.394; with O16-bS, 0.936; with O14-bS, -1.18; in the assay with P8A-bN, -0.473.

B4: 4H2290-AA (peptide)
chain: DKIAALEAENAALKAKNAALEAEIAALKG
Turning to B4, the interaction score in the assay with APC4011-AA was -1.59; with APC1434-AA, -1.4; in the assay with 4H733-AA it was -1.79; with 4H716-AA, -1.57; in the assay with APC232-AA it was -1.33; in the assay with APC6108-AA, -1.54. Also, the interaction score with APC2405-AA was -1.42; with 4H807-AA, -1.62; with APC4264-AA, -1.33; with APC4436-AA it was -1.53; with 4H2458-AA it was -1.34; in the assay with APC8191-AA, -1.64. For the same molecule, the interaction score was -1.68 in the assay with APC9319-AA; -1.59 with APC8910-AA; -1.86 in the assay with APC5383-AA; -1.41 in the assay with APC1015-AA; 2 with 4H2290-AA; -1.58 with APC2237-AA. Moreover, the interaction score with APC9096-AA was -1.24; with APC3645-AA, -1.44; with 4H3330-AA, -1.24; in the assay with 4H2447-AA it was -1.32; with APC7099-AA it was -1.57.
